Patent US20250340660A1 (published 2025)
Numbering of substitutions follows the chain as printed. Blank lines part the entries; values can stand above or below the binder they belong to.

Experiments:
mouse CD30L = biological target: T1, mouse CD30L (mouse, UniProt P32972 68-239, limits assumed); experiment: screening of a rat campaign with mouse CD30L antigen
T1 construct: also called rmCD30L
T1 sequence (looked up): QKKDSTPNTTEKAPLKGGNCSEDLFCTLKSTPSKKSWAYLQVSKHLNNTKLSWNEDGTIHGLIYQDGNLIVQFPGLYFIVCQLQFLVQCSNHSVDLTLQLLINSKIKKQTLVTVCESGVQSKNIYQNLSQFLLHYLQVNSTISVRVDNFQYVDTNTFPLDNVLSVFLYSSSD

[1] = biological target: T2, human CD30L expressed on cells (B16-huCD30L; HEK293 cells over-expressing TNFSF8) (human, UniProt P32971 1-234); experiment: cell-based or functional assay
T2 sequence: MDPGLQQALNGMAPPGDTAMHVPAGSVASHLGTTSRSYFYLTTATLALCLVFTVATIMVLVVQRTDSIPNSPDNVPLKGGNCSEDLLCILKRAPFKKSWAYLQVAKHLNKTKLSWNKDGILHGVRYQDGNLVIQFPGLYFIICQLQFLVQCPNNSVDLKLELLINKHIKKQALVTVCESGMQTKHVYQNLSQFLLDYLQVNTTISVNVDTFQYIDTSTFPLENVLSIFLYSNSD

[2] = biological target: T3, cynomolgus CD30L expressed on HEK293 cells (cynomolgus, UniProt A0A7N9CVX7 1-234); experiment: cell-based or functional assay
T3 sequence: T2 sequence with A19T, M20T, G32E, L41F, V75I, K78R, I204V, I227V

[3] = biological target: T4, human CD30L expressed on cells (human, UniProt P32971 1-234); experiment: flow cytometry, labelled antibody on PMA/ionomycin-stimulated primary lymphocytes, Patient 1 (CD, #04-021)
T4 construct: whole, on cells; The assay field of each row tells which cells carried it; also called huCD30L; B16-huCD30L cells
T4 sequence (looked up): T2 sequence
Description: (§1) Peripheral blood mononuclear cells (PBMCs) were isolated from freshly collected whole blood from Ulcerative Colitis (UC) and Crohn's Disease (CD) patients, by conventional density gradient centrifugation. […] After washing to remove unbound antibodies, the cells were fixed in a paraformaldehyde solution and analyzed by flow cytometry to quantify cell surface antibody binding.

[4] = biological target: T4, human CD30L expressed on cells; experiment: flow cytometry, labelled antibody on PMA/ionomycin-stimulated primary lymphocytes, Patient 2 (UC, #03-041)
Description: as §1

[5] = biological target: T4, human CD30L expressed on cells; experiment: flow cytometry, labelled antibody on PMA/ionomycin-stimulated primary lymphocytes, Patient 3 (UC, #02-180)
Description: as §1

[6] = biological target: T4, human CD30L expressed on cells; experiment: flow cytometry, labelled antibody on PMA/ionomycin-stimulated primary lymphocytes, Patient 4 (CD, #01-051)
Description: as §1

[7] = biological target: T2, human CD30L expressed on cells …; experiment: flow cytometry, blocking of recombinant CD30-Fc binding to CD30L-expressing cells; reference Ref1
[8] = biological target: T3, cynomolgus CD30L expressed on HEK293 …; experiment: as above
[9] = biological target: T5, recombinant human CD30L protein (human, UniProt P32971 63-234, limits assumed); experiment: KinExA, Fab in solution; reference: Fab of Ref1
T5 construct: Used for ELISA, BLI, Carterra, KinExA; also called rhCD30L; purified human CD30L
T5 sequence (looked up): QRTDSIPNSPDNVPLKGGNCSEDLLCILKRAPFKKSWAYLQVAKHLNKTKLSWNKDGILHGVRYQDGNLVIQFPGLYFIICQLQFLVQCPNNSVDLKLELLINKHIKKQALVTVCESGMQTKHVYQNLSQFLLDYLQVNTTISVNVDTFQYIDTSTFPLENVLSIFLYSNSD
Description: A KD analysis requires immobilization of one interaction partner to a solid phase which is then used as a probe to capture the other interaction partner, the constant binding partner (Fab). […] The solutions are then briefly exposed to the solid phase and a portion of free Fab is captured. The captured Fab is then labeled with a fluorescent secondary molecule. The short contact time with the solid phase is less than the time needed for dissociation of the pre-formed complex in solution, thus competition between the solution and the solid phase titrated binding partner is kinetically excluded.

B2: anti-CD30L antibody Clone 2 (parental) (antibody, V domains shown)
VH: EVQLVESGGGLVQPGRSLRLSCAASGFNFDDYAMHWVRQAPGKGLEWVSGISWRSGNIGYAGSVKGRFTISRDNAKNSLYLQMNSLRPEDSALYYCAKDKGIGFNWNYEGFDYWGQGTLVTVSS
VL: DIQMTQSPSSLSASVGDRVTITCRASQGISNHLAWFQQKPGKAPKSLIYAASSLQSGVPSKFSGSGSGTDFTLTISSLQPEDFATYYCQQYVTYPLTFGGGTKVEIK
- fold better IC50 than Ref1, IL-8 release dual cell assay [1]: 2 fold
- fold better IC50 than Ref1, IL-8 release dual cell assay [2]: 2.6 fold

B4: anti-CD30L antibody clone 2 germlined (antibody, V domains shown)
VH: B2 VH with G62D, P88A, S91T
VL: B2 VL with K61R
notes: also called germlined clone 2
- fold better IC50 than Ref1 [7]: 2.74 fold
- fold better IC50 than Ref1 [8]: 2.13 fold

B6: Clone 1, fluorescently labeled (format not stated in Table 7) (antibody, V domains shown)
VH: QVQLQESGPGLVKPSETLSLTCTVSGGSISGYYWSWIRQPPVKGLEWIGYIFYSGYTKYNPSLKSRVTISVDTSKNQFSLKLSSVTAADTAVYYCARDRWDFDYWGQGALVTVSS
VL: AIQMTQSPSYLSASVGDRVTIACRASQGIRNNLGWYQQKPGKAPKLLIYAESSLQSGVPSRFSGSGSGTDFTLTISSLQPEDFATYYCLQDFNYPYTFGQGTKLEIK
modifications: fluorescent label (site not stated)
notes: The variable domains are those of parental clone 1
- EC50 [3]: 7.45 nM
- EC50 [4]: 5.43 nM
- EC50 [5]: 5.57 nM
- EC50 [6]: 4.53 nM

Results, then the binder that gave them:

- binding result (mouse CD30L): binds
B1: clone 111, function blocking rat anti-mouse CD30L antibody (antibody, mouse IgG2a, V domains shown)
VH: EVKLQQSGDELVRPGASVKMSCKASGYTFTDYAMHWVKQSPGQGLEWIGSIIPLIDTTSYNQKFKGKATLTADKSSNTAYMELSRLTSEDSAVYYCARLGSRYLEGFDYWGQGVMVTVSS
VL: DIQMTQSPSSMSASLGDTVTINCLASQDIGNYLSWYQQKPGKSPKLMIYGATNLEDGVPSRFSGSGSGSDYSLTINSLGYDDEGIYHCHQYYEYPLTFGSGTKLEIK
notes: Rat antibody as found in the screen

- EC50 [3]: 2.4 nM
- EC50 [4]: 1.55 nM
- EC50 [5]: 1.71 nM
- EC50 [6]: 1.72 nM
B3: Clone 2, fluorescently labeled (format not stated in Table 7) (antibody, V domains shown)
VH: B2 VH
VL: B2 VL
modifications: fluorescent label (site not stated)
notes: The variable domains are those of parental clone 2

- fold KD against the reference 1 anti-CD30L [9]: 4.2 fold
B5: Fab of anti-CD30L clone 2 germlined (Fab, V domains shown)
VH: B2 VH with G62D, P88A, S91T
VL: B2 VL with K61R
notes: Fab; also called germlined-clone-2 Fab; germlined-clone-2-Fab
